Measurements from patent US20240307455A1, “COMPOSITIONS, DEVICES AND METHODS FOR TREATING IMMUNE-MEDIATED INFLAMMATORY DISEASES” (SIGILON THERAPEUTICS, INC., priority 2021, published 2024).

T1: IL-22 (Homo sapiens, UniProt Q9GZX6)
T1 construct: made in house; host or cells: genetically modified ARPE-19 cells; filter-sterilized culture supernatant, not purified
T1 sequence (Q9GZX6 34-179): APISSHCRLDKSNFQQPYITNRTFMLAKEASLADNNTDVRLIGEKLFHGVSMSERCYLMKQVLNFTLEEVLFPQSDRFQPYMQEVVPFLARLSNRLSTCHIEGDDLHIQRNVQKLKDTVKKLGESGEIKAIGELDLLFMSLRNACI


How the values were obtained:
[1] = in vivo; cited from earlier work
[2] = biological target: T1, IL-22; assay: Inhibition of IL22 activity in Col205 cells; format: cell-based; details: ARPE IL-22 supernatant 1%; rhIL22BP 100, 50, 25 and 1 ng/ml
Experimental: Inhibition of IL22 activity in Col205 cells. Col205 cells were seeded at a density of 2×10^5 cells/well in a 96 well plate and starved in serum free media overnight. The serum free media was removed and the cells were treated with 190 ul of recombinant human IL-22 binding protein (rhIL22BP) diluted in RPMI/10% FBS at concentrations of 100, 50, 25 and 1 ng/ml. Filter sterilized supernatant from hIL22-producing ARPE-19 cells (ARPE IL-22) or unmodified ARPE-19 cells (ARPE WT) was diluted 1:5 in RPMI/10% FBS and 10 ul was added to the wells for a final concentration of 1%. The plate was incubated overnight at 37 C, 5% CO2 for ˜18 h. The supernatant was transferred to a new 96 well plate and centrifuged.

[3] = tested on: Colo205 cells; assay: Induction of IL-10 production by Colo205 cells (ELISA); format: cell-based, human; details: ~18 h incubation
Experimental: Balb-3T3 cells and ARPE-19 cells were genetically modified to express and secrete murine IL-22 and human IL-22, respectively. The ability of the genetically modified ARPE-19 cells to produce active hIL-22 in vitro was assessed by the induction of IL-10 production by Colo205 cells, which are derived from human colonic epithelium.
Generation of IL-22 response curve. Col205 cells were seeded at a density of 2×10^5 cells/well in a 96 well plate and starved in serum free media overnight. The serum free media was removed from the wells and the cells were treated with rhIL-22 (peprotech Cat #200-22) diluted in RPMI/10% FBS at half log dilutions to generate final concentrations of 1000, 316.46, 100.14, 31.69, 10.02, 3.17, 1 and 0.32 pg/ml. The plate was incubated overnight at 37 C, 5% CO2 for ˜18 h. The supernatant was transferred to a new 96 well plate and centrifuged.
Biological activity of hIL-22 produced by genetically modified ARPE-19 cells. Col205 cells were seeded at a density of 2×10^5 cells/well in a 96 well plate and starved in serum free media overnight. The serum free media was removed and the cells were treated with filter sterilized supernatant from hIL22 producing ARPE-19 cells (ARPE-19 IL-22) or unmodified ARPE-19 cells (ARPE-19 WT) diluted in RPMI/10% FBS at final concentrations of 1%, 0.5%, 0.25% and 0.125%. The plate was incubated overnight at 37 C, 5% CO2 for ˜18 h. […]

Row | Molecule | IL-10 production by Colo205 cells [3] | further results
1 | human IL-10: human IL-10 protein in plasma |  | half-life of human IL-10 in plasma [1]: about 2 hours
2 | rhIL22BP: recombinant human IL-22 binding protein, an endogenous and specific IL-22 inhibitor (protein, UniProt Q969J5 22-263, looked up) Interleukin-22 receptor …: TQSTHESLKPQRVQFQSRNFHNILQWQPGRALTGNSSVYFVQYKIMFSCSMKSSHQKPSGCWQHISCNFPGCRTLAKYGQRQWKNKEDCWGTQELSCDLTSETSDIQEPYYGRVRAASAGSYSEWSMTPRFTPWWETKIDPPVMNITQVNGSLLVILHAPNLPYRYQKEKNVSIEDYYELLYRVFIINNSLEKEQKVYEGAHRAVEIEALTPHSSYCVVAEIYQPMLDRRSQRSEERCVEIP |  | IL-10 production induced by hIL-22 in the presence of rhIL22BP [2]: blocked
3 | rhIL-22: rhIL-22 (peprotech Cat #200-22) (protein, UniProt Q9GZX6 34-179, looked up) Interleukin-22: APISSHCRLDKSNFQQPYITNRTFMLAKEASLADNNTDVRLIGEKLFHGVSMSERCYLMKQVLNFTLEEVLFPQSDRFQPYMQEVVPFLARLSNRLSTCHIEGDDLHIQRNVQKLKDTVKKLGESGEIKAIGELDLLFMSLRNACI | induced IL-10 production | 
4 | hIL-22: human IL-22 in filter sterilized supernatant from hIL22 producing genetically modified ARPE-19 cells (protein, UniProt Q9GZX6 34-179, looked up) Interleukin-22: APISSHCRLDKSNFQQPYITNRTFMLAKEASLADNNTDVRLIGEKLFHGVSMSERCYLMKQVLNFTLEEVLFPQSDRFQPYMQEVVPFLARLSNRLSTCHIEGDDLHIQRNVQKLKDTVKKLGESGEIKAIGELDLLFMSLRNACI | functionally active | 
